Each block holds one molecule with its values, some of them ahead of it. Positions of bridges follow the written chain, without caps; N, C: chain ends. No end group written: not given here.
Key:
[1] = target: TMEM16A-GFP fusion protein on HEK293 stable cells (UniProt Q5XXA6); assay: flow cytometry on HEK293-TMEM16A cells
[2] = target: SP31 (ab64085) Abcam rabbit monoclonal antibody against human TMEM16A; assay: peptide pre-incubation of the antibody, western blot of TMEM16A
[3] = target: T1, cyclic peptide 45_ECD1-3 cys (human, disulfide 1-17 (inferred)); assay: peptide microarray, cyclic peptide, Cy5 anti-rat IgG detection
T1 construct: Same 15-mer as linear peptide 45, flanked by cysteines; also called Peptide 45 (cyclic)
T1 peptide: CSRYKDYREPPWSENKC
Method: (§1) Both set of peptides were printed on microarray slides in triplicate, incubated with the antibody of interest (12E11) and control antibodies. One is an incubation with an unrelated antibody from the same isotype (rat control IgG2b), the second using only the secondary antibody (anti-rat IgG (H+L) (JIR, 212-175-082) (Label Cy5)) to assess unspecific binding due to the detection antibody. The experiments are performed essentially as described in Maksimov P, et al. 2012, PLoS One 7:e34212. doi:10.1371/journal.pone. 0034212.
(§2) The determination of peptide-antibody binding was performed by RepliTope-analysis where the peptide microarray (triplicate) was incubated with the primary antibody followed by a fluorescently labelled secondary antibody directed against the Fc-part of the primary one. All steps were performed on a TECAN microarray processing station enabling highly reliable and reproducible washing and incubation steps. After performing the incubation steps and subsequent to the final washing steps (to remove the unbound secondary antibodies) the microarrays were dried using a nitrogen stream and scanned in a high resolution microarray scanning system with appropriate wavelength settings. Control incubations were performed with an unrelated antibody having the same isotype to exclude false positive signals.
(§3) The resulting images were analyzed and quantified using spot-recognition software GenePix (Molecular Devices). For each spot, the mean signal intensity was extracted (between 0 and 65535 arbitrary units). For further data evaluation, the MMC2 values were determined. The MMC2 equals the mean value of all three instances on the microarray. Except the coefficient of variation (CV)—standard-deviation divided by the mean value—is larger 0.5, in this case the mean of the two closest values (MC2) is assigned to MMC2.

[4] = target: T2, cyclic peptide 44_ECD1-3 cys (human, disulfide 1-17 (inferred)); assay: as above
T2 construct: Same 15-mer as linear peptide 44, flanked by cysteines; also called Peptide 44 (cyclic)
T2 peptide: CVQISRYKDYREPPWSC
Method: as §1, §2, §3

[5] = target: T3, cyclic peptide 46_ECD1-3 cys (human, disulfide 1-17 (inferred)); assay: as above
T3 construct: Same 15-mer as linear peptide 46, flanked by cysteines; also called peptide 46 (cyclic)
T3 peptide: CKDYREPPWSENKYDIC
Method: as §1, §2, §3

[6] = target: T4, linear peptide 46_ECD1-3 (human); assay: peptide microarray, linear peptide, Cy5 anti-rat IgG detection
T4 peptide: KDYREPPWSENKYDI
Method: as §1, §2, §3

[7] = target: T5, linear peptide 45_ECD1-3 (human); assay: as above
T5 peptide: SRYKDYREPPWSENK
Method: as §1, §2, §3

[8] = target: T6, linear peptide 44_ECD1-3 (human); assay: as above
T6 peptide: VQISRYKDYREPPWS
Method: as §1, §2, §3

Sequence of TMEM16A-GFP fusion protein on HEK293 stable cells (Q5XXA6 whole entry, the tested form may be a part): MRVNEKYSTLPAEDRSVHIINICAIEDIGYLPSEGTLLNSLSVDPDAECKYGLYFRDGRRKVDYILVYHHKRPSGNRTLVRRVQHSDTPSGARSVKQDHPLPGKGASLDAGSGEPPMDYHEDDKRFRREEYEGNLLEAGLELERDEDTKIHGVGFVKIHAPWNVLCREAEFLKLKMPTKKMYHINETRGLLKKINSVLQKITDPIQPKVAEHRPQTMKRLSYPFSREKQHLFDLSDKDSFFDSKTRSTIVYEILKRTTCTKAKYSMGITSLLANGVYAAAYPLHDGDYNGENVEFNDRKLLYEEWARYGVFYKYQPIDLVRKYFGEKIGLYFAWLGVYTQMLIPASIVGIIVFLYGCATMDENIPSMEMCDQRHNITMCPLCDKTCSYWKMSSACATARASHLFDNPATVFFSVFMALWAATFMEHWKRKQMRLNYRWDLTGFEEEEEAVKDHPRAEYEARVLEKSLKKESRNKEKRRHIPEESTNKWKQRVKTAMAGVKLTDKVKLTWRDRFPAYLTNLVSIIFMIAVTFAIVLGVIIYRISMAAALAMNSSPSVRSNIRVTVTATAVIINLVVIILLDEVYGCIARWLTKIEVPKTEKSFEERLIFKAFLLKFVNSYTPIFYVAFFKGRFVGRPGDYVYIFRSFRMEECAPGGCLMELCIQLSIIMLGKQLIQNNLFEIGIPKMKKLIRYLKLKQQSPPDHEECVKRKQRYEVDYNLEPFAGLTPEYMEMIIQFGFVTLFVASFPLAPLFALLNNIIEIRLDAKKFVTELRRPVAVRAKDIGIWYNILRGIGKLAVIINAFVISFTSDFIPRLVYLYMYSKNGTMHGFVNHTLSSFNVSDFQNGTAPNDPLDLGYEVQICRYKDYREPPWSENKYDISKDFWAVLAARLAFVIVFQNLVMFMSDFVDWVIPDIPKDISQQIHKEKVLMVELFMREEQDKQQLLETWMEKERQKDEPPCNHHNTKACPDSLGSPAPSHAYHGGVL

median fluorescence intensity [1]: 93
Molecule: isotype control antibody (control for 12E11 in flow cytometry)

peptide concentration that effectively blocked [2]: 0.01 µg/mL
Molecule: DHEECVKRKQRYEVDYNLE [blocking Peptide #2]

Signal intensity after subtraction of control signal (AU) [3]: 56600 AU
Signal intensity after subtraction of control signal (AU) [4]: 55900 AU
Signal intensity after subtraction of control signal (AU) [5]: 24800 AU
Signal intensity after subtraction of control signal (AU) [6]: 15100 AU
Signal intensity after subtraction of control signal (AU) [7]: 27300 AU
Signal intensity after subtraction of control signal (AU) [8]: 36800 AU
B1: 12E11 TMEM16A antibody (antibody, V domains shown)
VH: QVQLKESGPGLVQPSQTLTLTCTVSGFSLSNYDMHWVRQSPGKGLDWMGVIWGNGKTQYNSGLTSRLSISRDTSKSQVFLKMNSLQTEDTAIYFCTRSGYYYDGSYYSLFDYWGQGVMVTVSS
VL: DVVLTQTPPTLSATIGQSVSISCRSSQSLLHSNGNTYLNWLLQRPGQPPQLLIYLVSRLESGVPNRFSGSGSGTDFTLKISGVEAEDLGVYYCVQSTHAPAFGGGTKLELK
notes: Rat hybridoma monoclonal made by genetic immunization; The same-isotype control was rat IgG2b, which implies a rat IgG2b constant region
